Results as given in patent US20250051454A1 (DUKE UNIVERSITY, published 2025).
Numbering of substitutions follows the chain as printed.

B1: CA168 (antibody, V domains shown)
VH: QVQLVQSGAEVKKPGSSVKVSCKASGGTFSSYAISWVRQAPGQGLEWMGGIIPIFGTANYAQKFQGRVTITADKSTSTAYMELSSLRSEDTAVYYCARALTYYDFPDYGMDVWGQGTTVTVSS
VL: QSALTQPPSASGSPGQSVTISCTGTSSDVGGYNYVSWYQQHPGKVPKLMIYEVTKRPSGVPDRFSGSKSGNTASLTVSGLQAEDEADYYCSSYAGSNNLVFGGGTKLTVL
B2: CA152 (antibody, V domains shown)
VH: QVQLVQSGAEVKKPGSSVKVSCKASGGTFSSYAISWVRQAPGQGLEWMGGIIPIFGTANYAQKFQGRVTITADESTSTAYMELSSLRSEDTAVYYCARGQWSPGGYGMDVWGQGTTVTVSS
VL: not shown
B3: CA146 (antibody, V domains shown)
VH: EVQLVQSGGGVVQPGRSLRLSCAASGFTFSSYGMHWVRQAPGKGLEWVAVISYDGSNKYYADSVKGRFTISRDNSKNTLYLQMNSLRAEDTAVYYCAKDRYSIVGATSNGMDVWGQGTTVTVSS
VL: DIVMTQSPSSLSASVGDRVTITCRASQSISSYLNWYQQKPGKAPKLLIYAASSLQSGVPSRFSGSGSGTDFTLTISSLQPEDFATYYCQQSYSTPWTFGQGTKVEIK
B4: CA143 (human antibody on a human IgG1 backbone) (antibody, V domains shown)
VH: QVQLVQSGGGLVKPGGSLRLSCAASGFTFSSYSMNWVRQAPGKGLEWVSSISSSSSYIYYADSVKGRFTISRDNAKNSLYLQMNSLRAEDTAVYYCARDSLPAGDYFDYWGQGTLVTVSS
VL: DIQLTQSPSFLSASVGDRVTITCRASQGISSYLAWYQQKPGKAPKLLIYAASTLQSGVPSRFSGSGSGTEFTLTISSLQPEDFATYYCQQLNSYPQTTFGGGTKVEIK
B5: CA144 (antibody, V domains shown)
VH: B4 VH with S100R, L101V, P102E, A103M, G104A, D105F, Y106H
VL: not shown
B6: CA157 (antibody, V domains shown)
VH: EVQLVESGGGLVQPGGSLRLSCAASGFTFSSYEMNWVRQAPGKGLEWVSYISSSGSTIYYADSVKGRFTISRDNAKNSLYLQMNSLRAEDTAVYYCARGYCSSTSCPFDYWGQGTLVTVSS
VL: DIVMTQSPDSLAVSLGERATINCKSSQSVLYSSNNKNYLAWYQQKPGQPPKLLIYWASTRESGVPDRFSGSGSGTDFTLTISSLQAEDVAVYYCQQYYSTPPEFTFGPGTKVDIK
B7: CA148 (antibody, V domains shown)
VH: QVQLVQSGAEVKKPGASVKVSCKASGYTFTSYGISWVRQAPGQGLEWMGWISAYNGNTNYAQKLQGRVTMTTDTSTSTAYMELRSLRSDDTAVYYCARTPGDEYYYYYYMDVWGKGTTVTVSS
VL: EIVLTQSPATLSLSPGERATLSCRASQSVSSYLAWYQQKPGQAPRLLIYDASNRATGIPARFSGSGSGTDFTLTISSLEPEDFAVYYCQQRSNWPRTFGQGTKLEIK
B8: CA159 (antibody, V domains shown)
VH: QVQLVQSGAEVKKPGSSVKVSCKASGGTFSSYAISWVRQAPGQGLEWMGGIIPIFGTANYAQKFQGRVTITADESTSTAYMELSSLRSEDTAVYYCARASYYYYYMDVWGKGTTVTVSS
VL: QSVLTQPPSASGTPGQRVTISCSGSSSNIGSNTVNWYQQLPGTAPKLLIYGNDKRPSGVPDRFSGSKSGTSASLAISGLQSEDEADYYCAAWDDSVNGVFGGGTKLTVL
B9: CA156 (antibody, V domains shown)
VH: EVQLVESGGGLVKPGGSLRLSCAASGFTFSSYSMNWVRQAPGKGLEWVSSISSSSSYIYYADSVKGRFTISRDNAKNSLYLQMNSLRAEDTAVYYCARDFSGDFWSGYDYWGQGTLVTVSS
VL: not shown
B10: CA153 (antibody, V domains shown)
VH: EVQLVESGGGLVKPGGSLRLSCAASGFTFSSYSMNWVRQAPGKGLEWVSSISSSSSYIYYADSVKGRFTISRDNAKNSLYLQMNSLRAEDTAVYYCARLTYYYYMDVWGKGTTVTVSS
VL: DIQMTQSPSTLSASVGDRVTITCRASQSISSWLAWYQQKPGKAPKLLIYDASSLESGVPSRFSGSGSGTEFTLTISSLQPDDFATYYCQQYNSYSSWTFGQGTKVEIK
B11: CA158 (antibody, V domains shown)
VH: B10 VH with L99M, T100Y, Y101Q, Y102L, Y103A, Y104A, M105I, V107Y, K110Q, T113L
VL: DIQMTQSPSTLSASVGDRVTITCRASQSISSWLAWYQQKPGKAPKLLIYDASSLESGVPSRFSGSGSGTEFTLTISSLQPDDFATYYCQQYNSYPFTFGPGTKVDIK
B12: CA151 (antibody, V domains shown)
VH: QVQLQESGPGLVKPSETLSLTCTVSGGSVSSGSYYWSWIRQPPGKGLEWIGYIYYSGSTNYNPSLKSRVTISVDTSKNQFSLKLSSVTAADTAVYYCASFTRMSPYAFDIWGQGTMVTVSS
VL: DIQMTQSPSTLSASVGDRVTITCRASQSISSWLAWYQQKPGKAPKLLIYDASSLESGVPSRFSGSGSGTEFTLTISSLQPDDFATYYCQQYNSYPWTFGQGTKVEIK
B13: CA145 (antibody, V domains shown)
VH: EVQLVESGGGLVKPGGSLRLSCAASGFTFSDYYMSWIRQAPGKGLEWVSYISSSGSTIYYADSVKGRFTISRDNAKNSLYLQMNSLRAEDTAVYYCARDVLELRWWFDPWGQGTLVTVSS
VL: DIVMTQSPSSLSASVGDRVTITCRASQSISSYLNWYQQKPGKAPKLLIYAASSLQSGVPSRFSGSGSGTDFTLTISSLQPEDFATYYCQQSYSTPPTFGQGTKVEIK
B14: CA162 (antibody, V domains shown)
VH: QVQLVESGGGLVKPGGSLRLSCAASGFTFSDYYMSWIRQAPGKGLEWVSYISSSSSYTNYADSVKGRFTISRDNAKNSLYLQMNSLRAEDTAVYYCARGRTMFKNYYDSSGYYGYFDYWGQGTLVTVSS
VL: DIQMTQSPSSVSASVGDRVTITCRASQGISSWLAWYQQKPGKAPKLLIYAASSLQSGVPSRFSGSGSGTDFTLTISSLQPEDFATYYCQQANSPLTFGGGTKVEIK
B15: CA150 (antibody, V domains shown)
VH: QVQLVQSGAEVKKPGSSVKVSCKASGGTFSSYAISWVRQAPGQGLEWMGGIIPIFGTANYAQKFQGRVTITADESTSTAYMELSSLRSEDTAVYYCASFPNCSSTSCYYYYYMDVWGKGTTVTVSS
VL: QSALTQPASVSGSPGQSITISCTGTSSDVGGYNYVSWYQQHPGKAPKLMIYDVSNRPSGVSNRFSGSKSGNTASLTISGLQAEDEADYYCSSYTSSSTRDVVFGGGTKLTVL
B16: CA154 (antibody, V domains shown)
VH: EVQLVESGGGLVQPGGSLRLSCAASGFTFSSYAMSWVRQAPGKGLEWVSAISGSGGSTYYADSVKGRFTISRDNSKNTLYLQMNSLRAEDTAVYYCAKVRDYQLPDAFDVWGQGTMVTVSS
VL: AIRMTQSPSSFSASTGDRVTITCRASQGISSYLAWYQQKPGKAPKLLIYAASTLQSGVPSRFSGSGSGTDFTLTISCLQSEDFATYYCQQYYSYALTFGGGTKVEIK
B17: CA166 (antibody, V domains shown)
VH: EVQLVESGGGLVKPGGSLRLSCAASGFTFSSYSMNWVRQAPGKGLEWVSSISSSSSYIYYADSVKGRFTISRDNAKNSLYLQMNSLRAEDTAVYYCARVMITFGGADYWGQGTLVTVSS
VL: DIQMTQSPSSLSASVGDRVTITCRASQNINTYLNWYQKRPGIAPKLLIYGASSLQSGVPSRFSGSGSGTDFTLTISSLQPEDFATYYCQQYHTSPLTFGGGTPVDIK

biological target: T1, HLA-E-RL9HIV single chain trimer on transfected 293T cells (human, UniProt P61769 21-119; P13747 22-358); test: flow cytometry, SCT-transfected 293T cells, MFI bar chart [E]
T1 construct: also called control HLA-E-peptide complex

Binder	binding result
B1	no binding (tested: 2 µg/ml)
B2	no binding (tested: 2 µg/ml)
B3	no binding (tested: 2 µg/ml)
B4	no binding (tested: 2 µg/ml)
B5	no binding (tested: 2 µg/ml)
B6	no binding (tested: 2 µg/ml)
B7	no binding (tested: 2 µg/ml)
B8	no binding (tested: 2 µg/ml)
B9	no binding (tested: 2 µg/ml)
B10	no binding (tested: 2 µg/ml)
B11	no binding (tested: 2 µg/ml)
B12	no binding (tested: 2 µg/ml)
B13	no binding (tested: 2 µg/ml)
B14	no binding (tested: 2 µg/ml)
B15	no binding (tested: 2 µg/ml)
B16	no binding (tested: 2 µg/ml)
B17	no binding (tested: 2 µg/ml)

biological target: T2, HLA-E-RL9SIV single chain trimer on transfected 293T cells (human, UniProt P61769 21-119; P13747 22-358); test: as above
T2 construct: also called control HLA-E-peptide complex

Binder	binding result
B1	no binding (tested: 2 µg/ml)
B2	no binding (tested: 2 µg/ml)
B3	no binding (tested: 2 µg/ml)
B4	no binding (tested: 2 µg/ml)
B5	no binding (tested: 2 µg/ml)
B6	no binding (tested: 2 µg/ml)
B7	no binding (tested: 2 µg/ml)
B8	no binding (tested: 2 µg/ml)
B9	no binding (tested: 2 µg/ml)
B10	no binding (tested: 2 µg/ml)
B11	no binding (tested: 2 µg/ml)
B12	no binding (tested: 2 µg/ml)
B13	no binding (tested: 2 µg/ml)
B14	no binding (tested: 2 µg/ml)
B15	no binding (tested: 2 µg/ml)
B16	no binding (tested: 2 µg/ml)
B17	no binding (tested: 2 µg/ml)
